Measured values reported in patent US20240294650A1 (Alector, published 2024).
Residue numbers refer to the chain shown, from its start.

T1: recombinant human MerTK extracellular domain (human, UniProt Q12866 21-505)
T1 construct: also called human MerTK ECD; not shown: polyHis or TEVS/Thrombin/murine IgG2a-Fc tag
T1 sequence: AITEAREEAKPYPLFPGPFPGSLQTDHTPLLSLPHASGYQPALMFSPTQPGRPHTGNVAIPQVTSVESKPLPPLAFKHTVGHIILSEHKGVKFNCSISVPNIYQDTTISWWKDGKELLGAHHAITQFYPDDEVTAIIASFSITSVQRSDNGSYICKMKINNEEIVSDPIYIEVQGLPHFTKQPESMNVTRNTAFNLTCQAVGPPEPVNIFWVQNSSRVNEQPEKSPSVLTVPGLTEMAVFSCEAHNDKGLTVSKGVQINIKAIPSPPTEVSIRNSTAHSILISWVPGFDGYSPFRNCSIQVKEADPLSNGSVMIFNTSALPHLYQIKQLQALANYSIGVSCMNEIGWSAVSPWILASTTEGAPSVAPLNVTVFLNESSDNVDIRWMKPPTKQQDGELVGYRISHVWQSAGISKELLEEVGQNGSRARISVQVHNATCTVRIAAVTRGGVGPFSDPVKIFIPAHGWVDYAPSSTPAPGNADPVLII

T2: Recombinant human MerTK-human Fc Chimera protein (human, UniProt Q12866 26-499, limits assumed)
T2 construct: bought construct; also called MerTK-Fc (R&D systems, Cat #391-MR-100)
T2 sequence: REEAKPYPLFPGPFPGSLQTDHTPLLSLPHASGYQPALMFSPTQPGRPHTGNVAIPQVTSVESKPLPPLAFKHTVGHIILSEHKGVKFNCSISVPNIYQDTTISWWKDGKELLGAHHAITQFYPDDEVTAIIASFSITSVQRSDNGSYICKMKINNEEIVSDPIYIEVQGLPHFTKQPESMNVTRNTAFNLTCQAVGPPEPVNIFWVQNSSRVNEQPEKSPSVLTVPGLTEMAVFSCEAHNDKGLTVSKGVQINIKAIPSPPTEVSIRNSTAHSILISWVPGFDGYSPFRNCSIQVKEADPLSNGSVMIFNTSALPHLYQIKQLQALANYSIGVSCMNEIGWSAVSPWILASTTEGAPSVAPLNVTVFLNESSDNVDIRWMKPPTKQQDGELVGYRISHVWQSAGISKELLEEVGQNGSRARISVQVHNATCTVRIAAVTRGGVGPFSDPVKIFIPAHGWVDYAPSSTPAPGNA

B1: MTK-212 (antibody, human IgG1, V domains shown)
VH: QVQLQQSGPELVKPGASVKISCKASGYAFSSSWVNWVKQRPGKGLEWIGRIYPGDGDSNYNGNFKGKATLTADKSSNTAYLQLSSLTSEDSAVYFCARKSHFIYYTLDYWGQGTPVTVSS
VL: DIVMTQSHKFKSTSVGDRVSIACKASQDVGTSVAWYQQKPGKSPKLLIYWASSRHTGVPDRFTGSGSGTDFTLTISNVQSEDLTDYFCQQYSTYPYTFGGGTKLEIK
B2: MTK-216 (antibody, human IgG1, V domains shown)
VH: EVQLVESGGGLVKPGGSLKLSCAASGFTFSDYGMHWVRQAPEKGLEWVAFISSGSTTIYYADTVKGRFTISRDNAKNTLILQMTSLRSEDTAIYYCTRGGFHLDYWGQGTTLTVSS
VL: SIMMTQSPSSLAVSAGEKVTMGCKSSQSVLYSANQQNYLAWYQQKPGQSLKLLIYWASTRESGVPDRFTGSGSGTDFTLTISSVQAEDLAVYYCHQYFSSWTFGGGTKLEIK
B3: MTK-206 (antibody, human IgG1, V domains shown)
VH: QVQLQQSGAELARPGASVKMSCKASGYTFTSYTMHWVKQRPGQGLEWIGYINPSSGYIKNSQKFKDKATLTADKSSSTAYMQLSSLTSEDSAVYYCARTVYGYYGSSPDYWGQGTTLTVSS
VL: DIQMTQSPSSLSASLGERVSLTCRASQDIGSNLNWLQQEPDGTIKRLIYATSSLESGVPKRFSGSRSGSDYSLTISSLESEDFVDYYCLQYDSSPWTFGGGTKLEIK
B4: MTK-202 (antibody, human IgG1, V domains shown)
VH: EVQLVESGGGLVKPGGSLKLSCAASGFTFSDFGMHWVRQVPEKGLEWVAFISGGSNTIYYTDTVKGRFTISRDNAKNTLFLQMTSLRSEDTAMYYCVRNGNSFAYWGQGTLVTVSA
VL: B2 VL with S1N, G22N, A33S, Q36K, L50P, S83N, V84I, V91I, S99F
B5: MTK-204 (antibody, human IgG1, V domains shown)
VH: B2 VH with F50Y, S55T, T56S, A61E, I80F, I93M, T97A, F101L, H102L, L103F
VL: B2 VL with S1N, G22S, A33S, Q36K, L50P, Y55Q, G74E, S82R
B6: MTK-231 (antibody, human IgG1, V domains shown)
VH: DVQLQESGPGLVKPSQSLSLTCSVTGYSITSGYYWNWIRQFPGNKLEWMGYISYDGTYNYHPSLKNRISITRDTSKNQFFLTLNSVTTEDTATFYCTRGGGYWGQGTSVTVSS
VL: DVVMTQTPLSLPVSLGDQASISCRSSQSLVHSDGNTYLHWYLQKPGQSPKLLIYKVSNRFSGVPDRFSGSGSGTDFTLKISRLEAEDLGIYFCSQTTHIPLTFGSGTKLEIK
B7: MTK-215 (antibody, human IgG1, V domains shown)
VH: EVQLVESGGGLVKPGGSLKLSCAASGFIFSDYGMHWVRQAPEKGLEWVAYISSGSSTIYYGDTVKGRFTISRDNAKNTLFLQMTSLRSEDTAMYYCAKGGRYGAMDYWGHGTSVTVSS
VL: DIVLTQSPATLSVTPGDSVSLSCRASQSISNNLHWYQQKSHESPRLLIKNPSQSISGIPSRFGARGSGTDFTLIINSVETEDLGVYFCQQSNSWPFTFGSGTKLEIK
B8: MTK-208 (antibody, human IgG1, V domains shown)
VH: QVQLQQPGAELVVPGASVRLSCKASGYTFINYWMHWVKQRPGQGLEWIGEIDPSDSYANYNQKFKDKSTLSLDKSSSTAYMQLSSLTSEDSAVYYCARCDYYGRLDYWGQGTTLTVSS
VL: QVVLTQSPAIMSASPGEKVTITCSASSSVSYMLWFQQKPGTSPKLWIYSTSNLASGVPARFSGSGSGTSYSLTISRLEAEDAATYYCQQRSSYPPITFGAGTKLELK
B9: MTK-207 (antibody, human IgG1, V domains shown)
VH: QVQLKESGPGLVAPSQSLSITCTVSGISLTSYGVSWVRQPPGKGLEWLGIIWGDGSTNYHSALISRLSISKDNSKSQVFLKLNSLQTDDTATYYCAKGRYGNYEDWYFDVWGTGTTVTVSS
VL: DIQMTQSPASLSASVGETVTITCRASGNIHNYLAWYQQKQGKSPQLLVYNAKTLAAGVPSRFSGSGSGTQYSLKINSLQPEDFGSYYCQHFWSIPLTFGAGTKLELK
B10: MTK-225 (antibody, human IgG1, V domains shown)
VH: EVQLQQSGPELVKPGASVKIFCKASGYTFTAYNMDWVKQSHGKSLEWIGDINPNNGGTIYNQKFKGKATLTVDKSSSTAYMELRSLTSEDTAVYYCARRRRYGNTYYWYFDVWGTGTTVTVSS
VL: DIQMTQSPASLSVSVGETVTITCRASENIYSSLAWYQQKQGKSPQLLVYAATNLADGVPSRFSGSGSGTQFYLKINGLQSEDFGSYYCQHFWGTSYTFGGGTKLEIK
B11: MTK-221 (antibody, human IgG1, V domains shown)
VH: QVTLKESGPGMLQSSQTLSLTCSFSGFSLSTSGMGVSWIRQPSGKGLEWLAHIYWDDDKRYNTSLQSRLTISKDTSRNQVFLKITSVDTADTATYFCGRLGAYSAFPYYFDYWGQGTTLTVSS
VL: DIQMTQSPSSLSASLGGKVTITCKASQDIHKHIAWYQHKPGKGPRLLIHYTSTLQPGIPSRFSGSGSGRDYSFSISNLEPEDLATYYCLQYDNLWTFGGGTKLEIK

Each binder was assayed against T1, recombinant human MerTK extracellular … (assay: SPR Carterra LSA, Ab immobilised).
Description: Binding kinetics of anti-MerTK IgG1 antibodies of the present disclosure to human, cyno, and murine MerTK were evaluated using a Carterra LSA instrument (Carterra, Salt Lake City, UT). […] A HC200M sensor chip (Carterra) was activated using the single channel flow cell with a 7-minute injection of a 1:1:1 mixture of 100 mM MES pH 5.5, 100 mM sulfo-NHS, 400 mM EDC (all reconstituted in MES pH 5.5; 100 μl of each mixed in vial immediately before running assay). After switching to the multi-channel array flow cell, the antibodies were injected over the activated chip in three 96-spot arrays for 10 minutes each. The remaining unconjugated active groups on the chip were then blocked by injecting 1M Ethanolamine pH 8.5 (Carterra) for 7 minutes using the single channel flow cell. The resulting sensor chip contained three spots for each antibody, at three different densities. Two independent experiments were performed as follows, resulting in an N of between one and six determinations for each antibody. Spots that yielded less than 25 RU of analyte binding were excluded from further analysis.
After priming with running buffer (HBS-TE, Carterra) with 0.5 mg/ml BSA (Sigma), the immobilized anti-MerTK antibodies were tested for their ability to bind to several forms of recombinant MerTK extracellular domain, including human, cynomolgus, and mouse orthologs as described above. Estimates of affinity were generated by injecting each analyte over the entire antibody array using the single channel flow cell. MerTK analytes were diluted with running buffer, in a series of six, three-fold serial dilutions starting from 1 μM for human and cynomolgus MerTK, and 600 nM for mouse MerTK. Analytes were injected for 5 minutes, and dissociation was followed for 10 minutes. After each analyte injection, antibodies were regenerated with either Protein A/G Elution Buffer (Thermo) with 1M NaCl (Teknova), or with 10 mM Glycine pH 2.5. Three buffer blanks were run between each series (one species per series). Data were processed and analyzed using NextGenKIT high-throughput kinetics analysis software (Carterra).
A Kd of 82 nM was found for B1 in this work.
A Kd of 41 nM was found for B2 in this work.
A Kd of 150 nM was found for B3 in this work.
A Kd of 33 nM was found for B4 in this work.
A Kd of 240 nM was found for B5 in this work.
A Kd of 26 nM was found for B6 in this work.
A Kd of 370 nM was found for B7 in this work.
A Kd of 19 nM was found for B8 in this work.
A Kd of 52 nM was found for B9 in this work.
A Kd of 52 nM was found for B10 in this work.
A Kd of 29 nM was found for B11 in this work.

What follows are binders tested against T2, Recombinant human MerTK-human Fc … (assay: blocking ELISA, ProS-His on MerTK-Fc, Ab 66.6 nM, isotype=100%).
Description: Briefly, rabbit anti-human IgG antibody (Jackson ImmunoResearch, Cat #309-005-008) was coated at 2 μg/ml onto high-protein binding plates at 4° C. overnight. After washing with 0.05% Tween20 in PBS three times, 5% BSA in PBS was added for 1 hour. Recombinant human MerTK-human Fe Chimera protein (R&D systems, Cat #391-MR-100) was added at 2 μg/ml for 1 hour and plates were washed before the addition of 40 μl of anti-MerTK hybridoma supernatants and 40 μl of His tag-conjugated recombinant Gas6 (R&D systems, Cat #885-GSB-050) at 3 μg/ml or His tag-conjugated recombinant ProS (R&D systems, Cat #9489-PS-100) at 20 μg/ml. After a further incubation for 1 hour, plates were washed and incubated for 1 hour with HRP-conjugated anti-6×His tagged antibody (Abcam, Cambridge, MA, Cat #ab1187). Plates were then washed and an HRP substrate, TMB, was added to develop the plates. The reaction was stopped by adding 50 μl 2N H₂SO₄ and the OD was measured using a spectrophotometer (BioTek).
Anti-MerTK antibodies were titrated to a final concentration from 66.6 nM to 4 pM and tested against anti-human MerTK antibody M6 (disclosed in WO2016/106221) or isotype control antibody.
With B1 the “Percent ProS ligand binding” value was 45.8%.
With B2 the “Percent ProS ligand binding” value was 72.8%.
B3 was tested, and the “Percent ProS ligand binding” value was 132%.
B4 was tested, and the “Percent ProS ligand binding” value was 53.4%.
B5 was tested, and the “Percent ProS ligand binding” value was 101%.
With B6 the “Percent ProS ligand binding” value was 152%.
For B7, the “Percent ProS ligand binding” value was 81.6%.
With B8 the “Percent ProS ligand binding” value was 71.7%.
B9 was tested, and the “Percent ProS ligand binding” value was 95.5%.
B10 was tested, and the “Percent ProS ligand binding” value was 186%.
B11 was tested, and the “Percent ProS ligand binding” value was 72.8%.
